Experimental findings from IntAct's records for PubMed 22466964 are described below.

To fix the notation:
B1: Cullin-2 (Homo sapiens), Q13617 (parent)
chain: MSLKPRVVDFDETWNKLLTTIKAVVMLEYVERATWNDRFSDIYALCVAYPEPLGERLYTETKIFLENHVRHLHKRVLESEEQVLVMYHRYWEEYSKGADYMDCLYRYLNTQFIKKNKLTEADLQYGYGGVDMNEPLMEIGELALDMWRKLMVEPLQAILIRMLLREIKNDRGGEDPNQKVIHGVINSFVHVEQYKKKFPLKFYQEIFESPFLTETGEYYKQEASNLLQESNCSQYMEKVLGRLKDEEIRCRKYLHPSSYTKVIHECQQRMVADHLQFLHAECHNIIRQEKKNDMANMYVLLRAVSTGLPHMIQELQNHIHDEGLRATSNLTQENMPTLFVESVLEVHGKFVQLINTVLNGDQHFMSALDKALTSVVNYREPKSVCKAPELLAKYCDNLLKKSAKGMTENEVEDRLTSFITVFKYIDDKDVFQKFYARMLAKRLIHGLSMSMDSEEAMINKLKQACGYEFTSKLHRMYTDMSVSADLNNKFNNFIKNQDTVIDLGISFQIYVLQAGAWPLTQAPSSTFAIPQELEKSVQMFELFYSQHFSGRKLTWLHYLCTGEVKMNYLGKPYVAMVTTYQMAVLLAFNNSETVSYKELQDSTQMNEKELTKTIKSLLDVKMINHDSEKEDIDAESSFSLNMNFSSKRTKFKITTSMQKDTPQEMEQTRSAVDEDRKMYLQAAIVRIMKARKVLRHNALIQEVISQSRARFNPSISMIKKCIEVLIDKQYIERSQASADEYSYVA
partner: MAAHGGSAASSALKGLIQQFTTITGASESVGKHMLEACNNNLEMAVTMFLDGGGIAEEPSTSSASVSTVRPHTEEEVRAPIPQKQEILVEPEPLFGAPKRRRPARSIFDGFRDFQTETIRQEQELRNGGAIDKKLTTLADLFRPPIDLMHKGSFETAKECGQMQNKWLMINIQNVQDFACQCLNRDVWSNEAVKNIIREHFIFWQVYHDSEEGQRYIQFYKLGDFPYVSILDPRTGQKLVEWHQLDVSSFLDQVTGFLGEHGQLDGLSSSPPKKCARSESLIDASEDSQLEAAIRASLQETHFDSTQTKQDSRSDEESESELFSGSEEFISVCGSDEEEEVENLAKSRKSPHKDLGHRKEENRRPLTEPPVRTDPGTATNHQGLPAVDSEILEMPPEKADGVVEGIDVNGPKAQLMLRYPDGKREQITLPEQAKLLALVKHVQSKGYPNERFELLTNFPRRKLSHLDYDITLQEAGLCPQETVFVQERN
B2: UBX domain-containing protein 7 (Homo sapiens), O94888 (parent)
chain: B1 partner
B3: UBX domain-containing protein 5 (Saccharomyces cerevisiae), Q06682 (parent)
chain: MSEGKVDEFMAITGADDAAIATQFIEMADGNLNTAISLFFENGGAALLSSNNTPTPSNSTPMAPTSVDSDADAQLAERLQREAYQQQQPDQDYVRPPDEARHEVLTETSGFPISYGGIGGRFEPLHRVNDMFDEGRPESIFNQRLDDTNTNTYINDNSSDSLDSEEENDDDEYEYVEEPVIELDEDGNIKEYTKLVRKPKTISKEQKLALLFRPPFSIMSKLDLDAAKQKARAKQKWIMINIQDSGIFQCQALNRDLWSSRPVKTIIKENFVFLQYQYESRNAQPYLQFYHLNNKDDLPHIAILDPITGERVKQWNRVVPIPEQFISEINEFLASFSLDPKVPNPTVNEPLPKVDPTTLTEEQQMELAIKESLNNNSSKSNQEEVPSTGEEQKRVQEPDPFSTIEARVHPEPPNKPGITTRIQIRTGDGSRLVRRFNALEDTVRTIYEVIKTEMDGFADSRFTLNDHQREDLIDKLNMTIADAGLKNSSLLLEKLDPEIE
partner: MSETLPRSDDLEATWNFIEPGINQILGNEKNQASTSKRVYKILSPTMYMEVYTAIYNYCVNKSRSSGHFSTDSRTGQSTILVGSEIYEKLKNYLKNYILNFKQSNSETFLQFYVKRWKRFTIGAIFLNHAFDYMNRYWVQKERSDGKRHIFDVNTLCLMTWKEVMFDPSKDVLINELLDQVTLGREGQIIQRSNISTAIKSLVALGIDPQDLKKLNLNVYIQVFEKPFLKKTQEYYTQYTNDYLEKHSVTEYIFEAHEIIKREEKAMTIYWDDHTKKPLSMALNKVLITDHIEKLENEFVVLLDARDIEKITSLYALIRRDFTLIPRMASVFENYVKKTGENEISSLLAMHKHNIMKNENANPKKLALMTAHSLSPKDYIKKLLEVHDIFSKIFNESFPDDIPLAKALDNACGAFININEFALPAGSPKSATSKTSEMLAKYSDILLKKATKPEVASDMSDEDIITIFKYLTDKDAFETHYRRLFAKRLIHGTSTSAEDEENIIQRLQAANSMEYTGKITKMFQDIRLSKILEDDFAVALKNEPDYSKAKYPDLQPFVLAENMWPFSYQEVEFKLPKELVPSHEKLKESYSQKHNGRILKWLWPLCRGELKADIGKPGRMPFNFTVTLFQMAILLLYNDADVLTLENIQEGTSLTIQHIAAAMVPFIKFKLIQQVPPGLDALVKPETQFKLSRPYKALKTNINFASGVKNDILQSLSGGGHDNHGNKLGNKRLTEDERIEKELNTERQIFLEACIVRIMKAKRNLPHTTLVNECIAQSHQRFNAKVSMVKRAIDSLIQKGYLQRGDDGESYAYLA

The variants in the first test derive from B1. As to conditions: with ubxn7_human UBXN7, O94888.
K689R: the “effect of a mutation on the interaction” value is listed as “disrupting interaction strength”.

Another test covers variants of B2. As to conditions: with cul2_human CUL2, Q13617.
For the variant A293Q, the “effect of a mutation on the interaction” value is “disrupting interaction strength”.
Take E286R;L290E;A293Q: the “effect of a mutation on the interaction” value is given as “disrupting interaction strength”.

In the next test the parent is B3. As to conditions: with cdc53_yeast CDC53, Q12018.
For E361R;M365E;A368Q, the “effect of a mutation on the interaction” value is reported as “disrupting interaction strength”.
The same measure, in the same setting: for A368Q the value was “disrupting interaction strength”.
